Experimental data taken from patent US20230279126A1 (published 2023).
Where a chain is given by its changes, count along the chain named.

T1: extracellular domain of human IL23R (hIL23R ECD) (human, UniProt Q5VWK5 24-355)
T1 construct: The immunogen was an ECD-human IgG1 hinge-Fc fusion
T1 sequence: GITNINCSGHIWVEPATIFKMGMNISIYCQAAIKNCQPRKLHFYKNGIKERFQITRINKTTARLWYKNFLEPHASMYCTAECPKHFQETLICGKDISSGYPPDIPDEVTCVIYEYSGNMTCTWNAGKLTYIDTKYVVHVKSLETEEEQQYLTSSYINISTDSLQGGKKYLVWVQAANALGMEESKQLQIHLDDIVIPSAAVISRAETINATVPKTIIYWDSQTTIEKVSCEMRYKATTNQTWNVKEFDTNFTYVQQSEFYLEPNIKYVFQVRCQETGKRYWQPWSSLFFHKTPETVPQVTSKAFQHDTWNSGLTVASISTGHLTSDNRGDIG

T2: extracellular domain of mouse IL12RB1 (mIL12Rb1 ECD) (mouse, UniProt Q60837 20-565)
T2 construct: The immunogen was a fusion of the ECD with the human IgG1 hinge and Fc; also called mIL12Rb1 ECD antigen
T2 sequence: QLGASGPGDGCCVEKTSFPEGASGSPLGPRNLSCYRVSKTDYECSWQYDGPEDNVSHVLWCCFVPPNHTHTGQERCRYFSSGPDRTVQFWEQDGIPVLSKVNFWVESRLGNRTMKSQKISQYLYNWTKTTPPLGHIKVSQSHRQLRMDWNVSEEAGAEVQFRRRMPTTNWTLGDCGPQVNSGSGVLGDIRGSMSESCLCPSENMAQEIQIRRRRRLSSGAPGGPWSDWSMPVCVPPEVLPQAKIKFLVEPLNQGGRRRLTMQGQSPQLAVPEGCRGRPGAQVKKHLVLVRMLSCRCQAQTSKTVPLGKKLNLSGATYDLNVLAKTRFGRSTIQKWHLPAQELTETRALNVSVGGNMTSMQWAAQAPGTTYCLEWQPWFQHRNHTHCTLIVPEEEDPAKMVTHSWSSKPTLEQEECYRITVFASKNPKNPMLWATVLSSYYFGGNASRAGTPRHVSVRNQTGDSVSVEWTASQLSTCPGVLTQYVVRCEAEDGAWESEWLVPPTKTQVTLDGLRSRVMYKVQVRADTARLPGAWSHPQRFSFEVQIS

B1: hIL23R_VHH2 (VHH)
VHH: QVQLQESGGGSVQAGGSLRLSCAASGYTYCSYDMSWYRQAPGKKREFVSSFNSDGSTSYADSVKGRFTISQDNAKNTVYLQMNSLKPEDTAMYYCKTDPHADWGAPCGGDYWGQGTQVTVSS
notes: Phagemid clone with his-tag, periplasmic extract
B2: hIL23R_VHH4 (VHH)
VHH: B1 VHH with Y27S, S31T, S35T, K44R, S50A, F51I, H100N, A101S, D102G
notes: as for B1
B3: hIL23R_VHH12 (VHH)
VHH: QVQLQESGGGSVQAGGSLRLSCAASGYTSSSRCMGWFRQAPGKEREGVARIYTPTRTTWYADSVKGRFTISQDNAKNTVYLEMASLKPEDTAKYFCAAGASCAVDLFSYWGQGTQVTVSS
notes: as for B1
B4: hIL23R_VHH3 (VHH)
VHH: QVQLQESGGGSVQAGESLRLSCAASGYTYCTYDMTWYRQAPGKKREFVSGIHSDGTTSYADSVKGRFTISQDNAENTVYLQMNSLKPEDTAMYYCKTDPIATITRRCDSYWGQGTQVTVSS
notes: as for B1
B5: hIL23R_VHH10 (VHH)
VHH: QVQLQESGGGSVQAGGSLKLSCAASGYTYCNYDIAWYRQAPGKERKFVSAIASDGSTSYADSVKGRFTISQDNAKNTVYLQMNSLKPEDTAMYYCKTDPIATMTRRCDPYWGQGTQVTVSS
notes: as for B1
B6: hIL23R_VHH18 (VHH)
VHH: B5 VHH with K19R, S21A
notes: as for B1
B7: hIL23R_VHH16 (VHH)
VHH: B5 VHH with Q13E, S17A, K19T, A23V
notes: as for B1
B8: hIL23R_VHH11 (VHH)
VHH: B4 VHH with E16G, T31S, G50A, H52D, T56S, E75K, T104S
notes: as for B1
B9: hIL23R_VHH7 (VHH)
VHH: B5 VHH with K19R, S56I, A101S, M103I, R106I
notes: as for B1
B10: hIL23R_VHH15 (VHH)
VHH: QVQLQESGGGSVQAGGSLRLSCAASPGTYTSRYMGWFRQAPGKEREGVATIWPAGGNTVYADSVKGRFTISQDGAKKTVYLQMNSLKPEDTAMYYCAAAKYGGTSLAPYTYNYWGQGTQVTVSS
notes: as for B1
B11: mIL12Rb1_VHH11 (VHH)
VHH: QVQLQESGGGSVQAGGSLRLSCVASGYSYCGYDMMWYRQAPGKEREFVALITSDYSIRYEDSVEGRFSISRDNAKNTGYLLMSNLTPADTAIYYCKTSTAARESSWCRSRYRVASWGQGTQVTVSS
notes: as for B1
B12: hIL23R_VHH17 (VHH)
VHH: QVQLQESGGGSVQAGGSLRLSCTASGYTFSTMKYMGWFRQAPGKEREGVAAIWIAAGNTYYADSVKGRFTISQDNTKNTVYLQMNSLKPEDTALYYCAAARYGFVPSTWYLPERYNYWGQGTQVTVSS
notes: as for B1
B13: hIL23R_VHH13 (VHH)
VHH: QVQLQESGGGSVQAGGSLRLSCAASGYTYCSYDMKWYRQAPGKKREFVSAIDSDGSTSYADSVKGRFTISQDNAKNTVYLQMNSLKPEDTAMYYCKTEGTIPVGVCPNYWGQGTQVTVSS
notes: as for B1
B14: hIL23R_VHH14 (VHH)
VHH: B13 VHH with S11L, A14P, I101V
notes: as for B1
B15: hIL23R_VHH8 (VHH)
VHH: B13 VHH with G10D, K44E, A50G, T57I, V105A
notes: as for B1
B16: mIL12Rb1_VHH9 (VHH)
VHH: QVQLQESGGGSVQAGGSLRLSCVASGYGYCGYDMSWYRQAPGKEREFVALITSDRSISYEDSVKARFIISRDNAANTGYLDMTRLTPDDTAIYYCKTSAAARESSWCRSRYRVASWGQGTQVTVSS
notes: as for B1
B17: mIL12Rb1_VHH10 (VHH)
VHH: QVQLQESGGGSVQAGGSLRLSCAVSGYDYCGYDVRWYRQAPGKEREFVSGIDSDGSTSYADSVKGRFTISQDNAENTSYLHMFSLKPEDTAMYYCKTESPAGESAWCRNFRGMDYWGKGTQVTVSS
notes: as for B1
B18: hIL23R_VHH6 (VHH)
VHH: QVQLQESGGGLVQPGGSLRLSCAASGYTYCSYDMGWYRQAPGKKRKFVSSINSDGTTSYADSVKGRFTISQDNAKNTVYLQMNSLKPEDTAMYYCKTDPQTRPGKPCADYWGQGTQVTVSS
notes: as for B1
B19: hIL23R_VHH9 (VHH)
VHH: B18 VHH with P14A, G35S, K44E
notes: as for B1
B20: hIL23R_VHH1 (VHH)
VHH: QVQLQESGGGSVQAGGSLRLSCAASGYTYCSYDMSWYRQAPGKKREFVSAFNSDGTTSYADSVKGRFTISQDKAKNTVYLQMNSLKPEDTAMYYCKTDPHVQSSGGYCPPYWGQGTQVTVSS
notes: as for B1
B21: hIL23R_VHH5 (VHH)
VHH: B20 VHH with F51I, N52A, T56S, V63L, K73N
notes: as for B1
B22: mIL12Rb1_VHH19 (VHH)
VHH: QVQLQESGGGSVQAGGFLRLSCVASGYGYCGYDMSWYRQVPGKEREFVALITSDRSVSYEDSVKGRFSISRDNAKNTAYLEMNRLTPDDTAIYYCKTSTAARENNWCRSRYRIASWGQGTQVTVSS
notes: as for B1
B23: mIL12Rb1_VHH20 (VHH)
VHH: B16 VHH with A40T, S56I, I57A, A65G, A75K, L85V, S104N
notes: as for B1
B24: mIL12Rb1_VHH8 (VHH)
VHH: B16 VHH with S17F, D54E, S56V, A65G, I68S, A75E, D81E, T83N
notes: as for B1
B25: mIL12Rb1_VHH15 (VHH)
VHH: B22 VHH with I92V, S115Y
notes: as for B1
B26: hIL23R_VHH19 (VHH)
VHH: QVQLQESGGGSVQAGGSLRLSCAASGYTSCSYDMSWYRQAPGKKREFVSAIHSDGTTSYADSMKGRFTISQDNAKNTVYLQMNSLKPEDTAMYYCKTDPNYSDHVCPPYWGRGTQVTVSS
notes: as for B1

Experiments:
[1] = molecular target: T1, extracellular domain of human IL23R …; assay: periplasmic extract ELISA (PE-ELISA) of phage clones, colorimetric
Outline: (§1)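 After multiple rounds of biopanning on the human or mouse extracellular domain, individual phage clones were screened for selective binding by colorimetric periplasmic extract ELISA in 96-well plates. The library was built from camels given human and then mouse receptor extracellular domain–human IgG1 hinge–Fc fusion proteins. Their blood RNA was transcribed, and the roughly 400 bp VHH fragment was placed in frame with a his-tag in a phagemid in E. coli.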

[2] = molecular target: T2, extracellular domain of mouse IL12RB1 …; assay: as above
Outline: as §1

Binder	binding result [1]	binding result [2]
B1	binds	
B2	binds	
B3	binds	
B4	binds	
B5	binds	
B6	binds	
B7	binds	
B8	binds	
B9	binds	
B10	binds	
B11		binds
B12	binds	
B13	binds	
B14	binds	
B15	binds	
B16		binds
B17		binds
B18	binds	
B19	binds	
B20	binds	
B21	binds	
B22		binds
B23		binds
B24		binds
B25		binds
B26	binds	
